Measurements: US20200206312A1
“And” between values parts separate entries of the source, which are not always exact repeats. Equal values may be shown once. Read-outs that look alike come from different tables or passages of the source. Bridge positions count the residues as written; N and C are the ends. Ends that are not written are not given here. * marks the point of attachment. Biotin = O=C1N[C@H]2[C@H](CS[C@H]2CCCCC(=O)*)N1; Capped = not defined here

B1: NH2(Biotin)-Y-G-P-Q-C(Capped)-L-C(Capped)-R-COOH (peptide)
peptide: Biotin-YGPQC(Capped)LC(Capped)R-OH
modifications: reading uncertain; also: printed as NH2(Biotin)-Y-G-P-Q-C(Capped)-L-C(Capped)-R-COOH
B2: NH2(Biotin)-C(Capped)-Y-G-P-Q-C(Capped)-L-C(Capped)-R-COOH (peptide)
peptide: Biotin-C(Capped)YGPQC(Capped)LC(Capped)R-OH
modifications: reading uncertain; also: printed as NH2(Biotin)-C(Capped)-Y-G-P-Q-C(Capped)-L-C(Capped)-R-COOH
B3: tri-peptide 1/2/3 from trypsin digestion of Lys-27 biotinylated TM601 (UM-1438-118) (peptide)
chain 1: MCMPCFTTDHQMAR
chain 2: GKCYGPQCLCR
chain 3: KCDDCCGGK
modifications: not fully specified; modifications not checked
B4: tri-peptide 1/2/3 from trypsin digestion of N-terminal biotinylated TM601 (UM-1438-127-1) (peptide)
chain 1: MCMPCFTTDHQMAR
chain 2: CYGPQCLCR
chain 3: KCDDCCGGK
modifications: not fully specified (N-terminus); cysteine pairing not given here

Tests used:
[1] = molecular target: T1, Recombinant human NRP1 with His Tag (Sino Biological Inc.; Cat #1001-H08H) (human), O14786
T1 sequence (O14786 other isoform, or with tags, fused parts or gaps H08H H08H limits assumed): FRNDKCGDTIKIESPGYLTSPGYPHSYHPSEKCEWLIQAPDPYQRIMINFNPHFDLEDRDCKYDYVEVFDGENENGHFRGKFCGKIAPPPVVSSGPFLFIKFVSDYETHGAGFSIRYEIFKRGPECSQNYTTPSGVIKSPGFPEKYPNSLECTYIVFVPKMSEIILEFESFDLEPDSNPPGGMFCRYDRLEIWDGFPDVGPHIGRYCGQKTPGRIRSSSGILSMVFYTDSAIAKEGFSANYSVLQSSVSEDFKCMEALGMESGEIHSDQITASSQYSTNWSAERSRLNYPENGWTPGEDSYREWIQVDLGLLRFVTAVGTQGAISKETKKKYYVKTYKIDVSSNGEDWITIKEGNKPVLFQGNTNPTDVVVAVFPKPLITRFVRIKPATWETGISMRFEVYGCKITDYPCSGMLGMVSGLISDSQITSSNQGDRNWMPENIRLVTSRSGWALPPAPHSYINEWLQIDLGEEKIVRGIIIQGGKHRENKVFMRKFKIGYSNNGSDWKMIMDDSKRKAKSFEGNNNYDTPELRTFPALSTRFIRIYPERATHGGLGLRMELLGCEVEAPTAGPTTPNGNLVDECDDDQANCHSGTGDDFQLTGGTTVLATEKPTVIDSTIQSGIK

[2] = molecular target: T1, Recombinant human NRP1 with His Tag …; remark: listed apart in the source
[3] = molecular target: T1, Recombinant human NRP1 with His Tag …; remark: listed apart in the source
[4] = molecular target: T1, Recombinant human NRP1 with His Tag …; experiment: BLI (Octet Red96), biotinylated peptide on streptavidin sensor, NRP1 in solution

| Binder | Kd [1] | Kd [3] | other results |
| --- | --- | --- | --- |
| Biotin-CYGPQCLC(Capped)R-OH (disulfide 1-6; reading uncertain) [NH2(Biotin)-C-Y-G-P-Q-C-L-C(Capped)-R-COOH with S-S between the first two C] | 410 nM | – | – |
| B1 | 300 nM and 294 nM | – | – |
| B2 | – | – | Kd [2]: 153 nM and 335 nM |
| B3 | – | 112 nM and 187 nM | – |
| B4 | – | 173 nM and 70 nM | – |
| Biotin-C(Capped)LC(Capped)R-OH (reading uncertain; also: printed as NH2(Biotin)-C(Capped)-L-C(Capped)-R-COOH) [NH2(Biotin)-C(Capped)-L-C(Capped)-R-COOH] | – | – | Kd [4]: 335 nM |
